We go through one molecule from patent publication US20250283063, “NOVEL CRISPR-CAS12I SYSTEMS AND USES THEREOF” (HUIDAGENE THERAPEUTICS (SINGAPORE) PTE. LTD., published 2025).

Data set [1] deals with T1, Cas12Max (xCas12i-N243R, v1.1) (N243R).
T1 chain: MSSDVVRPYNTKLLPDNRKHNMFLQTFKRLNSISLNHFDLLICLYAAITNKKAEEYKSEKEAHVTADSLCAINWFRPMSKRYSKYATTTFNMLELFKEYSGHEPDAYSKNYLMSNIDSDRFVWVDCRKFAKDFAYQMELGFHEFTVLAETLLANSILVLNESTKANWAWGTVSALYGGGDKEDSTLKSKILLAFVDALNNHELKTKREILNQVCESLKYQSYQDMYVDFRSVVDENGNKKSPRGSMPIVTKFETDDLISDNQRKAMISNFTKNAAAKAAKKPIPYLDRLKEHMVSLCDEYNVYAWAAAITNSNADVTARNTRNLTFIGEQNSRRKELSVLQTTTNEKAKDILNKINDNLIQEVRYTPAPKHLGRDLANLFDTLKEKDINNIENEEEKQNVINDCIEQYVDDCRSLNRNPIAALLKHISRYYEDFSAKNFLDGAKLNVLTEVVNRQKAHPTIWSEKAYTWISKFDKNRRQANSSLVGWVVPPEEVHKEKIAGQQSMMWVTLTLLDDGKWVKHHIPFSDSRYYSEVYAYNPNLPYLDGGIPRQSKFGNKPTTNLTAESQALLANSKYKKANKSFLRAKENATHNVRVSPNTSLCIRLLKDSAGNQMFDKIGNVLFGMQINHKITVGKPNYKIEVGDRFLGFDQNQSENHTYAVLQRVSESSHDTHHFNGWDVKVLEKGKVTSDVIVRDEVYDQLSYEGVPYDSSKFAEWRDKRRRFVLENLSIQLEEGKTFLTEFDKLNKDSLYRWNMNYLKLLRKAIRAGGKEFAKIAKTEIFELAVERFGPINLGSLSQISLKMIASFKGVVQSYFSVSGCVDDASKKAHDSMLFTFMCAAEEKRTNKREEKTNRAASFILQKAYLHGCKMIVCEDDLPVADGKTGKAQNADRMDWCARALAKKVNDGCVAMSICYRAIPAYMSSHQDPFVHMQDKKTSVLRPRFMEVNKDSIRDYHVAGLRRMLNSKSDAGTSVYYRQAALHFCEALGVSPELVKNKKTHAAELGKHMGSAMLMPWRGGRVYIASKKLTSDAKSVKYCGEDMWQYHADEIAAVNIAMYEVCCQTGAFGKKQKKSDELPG
The experiment in a line: cell_activity; PAM TTTG; OT-1. The note with it: tags: NLS. As to the method:
(§1) HEK293T cells were cultured in 24-well tissue culture plates according to standard methods for 12 hours, before the reporter and expression plasmids were co-transfected into the cells using standard polyethyleneimine (PEI) transfection. The transfected cells were then cultured at 37° C. under 5% CO₂ for 48 hours. Then the cultured cells were analyzed by flow cytometry for BFP, EGFP, and mCherry fluorescent signals. A “blank” control group was also set up, where only the reporter plasmid was transfected, and no expression plasmid was introduced.
(§2) A dual plasmid fluorescent reporter system for evaluation of off-target dsDNA cleavage activity (off-target reporter system; referring to “Off-Target Reporter” in FIG. 1B) was established, which was similar to the dual plasmid fluorescent reporter system in Example 6 for evaluation of (on-target) dsDNA cleavage activity, except that the insertion sequence of the EGxxxxFP coding sequence contains an TTR off-target protospacer sequence (one of SEQ ID NOs: 127-129) containing one or more mismatches (bold, underlined) with a TTR-targeting spacer sequence (SEQ ID NO: 130) in the gRNA, rather than containing a TTR on-target protospacer sequence (SEQ ID NO: 130; which is the same as SEQ ID NO: 107 in Example 5); DR-T1 sequence (SEQ ID NO: 451) was used. To save drafting, the on-target protospacer sequence/spacer sequence in Table 7 refer to both the protospacer sequence (a DNA sequence) and the corresponding spacer sequence (an RNA sequence) with any “T” in the sequence when referring to a protospacer sequences standing for “T” and when referring to a such spacer sequence standing for “U”, although the assigned SEQ ID NO: 130 in the sequence listing is annotated as DNA.

The next data set concerns the target T2, hfCas12Max (v6.3) (N243R,E336R,D892R).
T2 chain: T1 chain with E336R, D892R
The experiment in a line: cell_activity; PAM TTTG; OT-1. The note with it: tags: NLS. As to the method:
as §1, §2

Changes are numbered by the printed parent chain.

B1: TTR.2 crRNA ; TTR OT.1 (ssRNA ; dsDNA)
RNA: AUGACUCAGAAAUGUGUCCCCAGUUGACACUAGAAGGGAUAUACAAAGUGGA
DNA 1: TTTGTAGAAGGGATATAGAAAGTATC
DNA 2: GATACTTTCTATATCCCTTCTACAAA
In the case of B1, the figures for the activity (in data set [1]; with hfCas12Max (v6.3)) were 60.2% and 1.55%, respectively.
